Patent US12123876B2, “Antibody binding to HEG1 and use of the antibody for detection and treatment of mesothelioma” (Kanagawa Prefectural Hospital Organization, priority 2016, dated 2024)

B1: HEG1 1 kb: HEG1 fragment, position 992 valine to position 1387 phenylalanine of SEQ ID NO: 35 (protein, listed as Homo sapiens)
chain: VNSCAVNPCLHNGECVADNTSRGYHCRCPPSWQGDDCSVDVNECLSNPCPSTAMCNNTQGSFICKCPVGYQLEKGICNLVRTFVTEFKLKRTFLNTTVEKHSDLQEVENEITKTLNMCFSALPSYIRSTVHASRESNAVVISLQTTFSLASNVTLFDLADRMQKCVNSCKSSAEVCQLLGSQRRIFRAGSLCKRKSPECDKDTSICTDLDGVALCQCKSGYFQFNKMDHSCRACEDGYRLENETCMSCPFGLGGLNCGNPYQLITVVIAAAGGGLLLILGIALIVTCCRKNKNDISKLIFKSGDFQMSPYAEYPKNPRSQEWGREAIEMHENGSTKNLLQMTDVYYSPTSVRNPELERNGLYPAYTGLPGSRHSCIFPGQYNPSFISDESRRRDYF
B2: 7.62: SEQ ID NO: 45 (EKVITESKSPSLVSLPTEST) bonded to SLURPgpi (protein)
chain: EKVITESKSPSLVSLPTESTGSLKCYTCKEPMTSASCRTITRCKPEDTACMTTLVTVEAEYPFNQSPVVTRSCSSSCVATDPDSIGAAHLIFCCFRDLCNSELSRDGAPSLGSPGGLLLALALFLLLGVLL
B3: HEG1 2 kb: HEG1 fragment, position 677 leucine to position 1387 phenylalanine of SEQ ID NO: 35 (protein, listed as Homo sapiens)
chain: SSGPPLPLPSVSQSHHLFSSILPSTRASVHLLKSTSDASTPWSSSPSPLPVSLTTSTSAPLSVSQTTLPQSSSTPVLPRARETPVTSFQTSTMTSFMTMLHSSQTADLKSQSTPHQEKVITESKSPSLVSLPTESTKAVTTNSPLPPSLTESSTEQTLPATSTNLAQMSPTFTTTILKTSQPLMTTPGTLSSTASLVTGPIAVQTTAGKQLSLTHPEILVPQISTEGGISTERNRVIVDATSGLIPLTSVPTSAKEMTTKLGVTAEYSPASRSLGTSPSPQTTVVSTAEDLAPKSATFAVQSSTQSPTTLSSSASVNSCAVNPCLHNGECVADNTSRGYHCRCPPSWQGDDCSVDVNECLSNPCPSTAMCNNTQGSFICKCPVGYQLEKGICNLVRTFVTEFKLKRTFLNTTVEKHSDLQEVENEITKTLNMCFSALPSYIRSTVHASRESNAVVISLQTTFSLASNVTLFDLADRMQKCVNSCKSSAEVCQLLGSQRRIFRAGSLCKRKSPECDKDTSICTDLDGVALCQCKSGYFQFNKMDHSCRACEDGYRLENETCMSCPFGLGGLNCGNPYQLITVVIAAAGGGLLLILGIALIVTCCRKNKNDISKLIFKSGDFQMSPYAEYPKNPRSQEWGREAIEMHENGSTKNLLQMTDVYYSPTSVRNPELERNGLYPAYTGLPGSRHSCIFPGQYNPSFISDESRRRDYF
B4: 7.6: HEG1 exon 7 fragment from amino acid No. 783 bonded to SLURPgpi; SEQ ID NO: 66 in FIG. 13 (protein)
chain: DLKSQSTPHQEKVITESKSPSLVSLPTESTKAVTTNSPLPPSLTESSTEQTLPATSTNLAQMSPTFTTTILKTSQPLMTTPGTLSSTASLVTGPIAVQTTAGKQLSLTHPEILVPQISTEGGISTERNRVIVDATSGLIPLTSVPTSAKEMTTKLGVTAEYSPASRSLGTSPSPQTTVVSTAEDLAPKSATFAVQSSTQSPTTLSSSASGSLKCYTCKEPMTSASCRTITRCKPEDTACMTTLVTVEAEYPFNQSPVVTRSCSSSCVATDPDSIGAAHLIFCCFRDLCNSELSRDGAPSLGSPGGLLLALALFLLLGVLL
B5: 7.623: SEQ ID NO: 48 (SKSPSLVSLPTEST) bonded to SLURPgpi (protein)
chain: SKSPSLVSLPTESTGSLKCYTCKEPMTSASCRTITRCKPEDTACMTTLVTVEAEYPFNQSPVVTRSCSSSCVATDPDSIGAAHLIFCCFRDLCNSELSRDGAPSLGSPGGLLLALALFLLLGVLL
B6: HEG1 3 kb: HEG1 fragment, position 285 leucine to position 1387 phenylalanine of SEQ ID NO: 35 (protein, listed as Homo sapiens)
chain: LSWLHFYRTAASSPLLDLSSSSESTEKLNNSTGLQSSSVSQTKTMHVATVFTDGGPRTLRSLTVSLGPVSKTEGFPKDSRIATTSSSVLLSPSAVESRRNSRVTGNPGDEEFIEPSTENEFGLTSLRWQNDSPTFGEHQLASSSEVQNGSPMSQTETVSRSVAPMRGGEITAHWLLTNSTTSADVTGSSASYPEGVNASVLTQFSDSTVQSGGSHTALGDRSYSESSSTSSSESLNSSAPRGERSIAGISYGQVRGTAIEQRTSSDHTDHTYLSSTFTKGERALLSITDNSSSSDIVESSTSYIKISNSSHSEYSSFFHAQTERSNISSYDGEYAQPSTESPVLHTSNLPSYTPTINMPNTSVVLDTDAEFVSDSSSSSSSSSSSSSSSSSSSSGPPLPLPSVSQSHHLFSSILPSTRASVHLLKSTSDASTPWSSSPSPLPVSLTTSTSAPLSVSQTTLPQSSSTPVLPRARETPVTSFQTSTMTSFMTMLHSSQTADLKSQSTPHQEKVITESKSPSLVSLPTESTKAVTTNSPLPPSLTESSTEQTLPATSTNLAQMSPTFTTTILKTSQPLMTTPGTLSSTASLVTGPIAVQTTAGKQLSLTHPEILVPQISTEGGISTERNRVIVDATSGLIPLTSVPTSAKEMTTKLGVTAEYSPASRSLGTSPSPQTTVVSTAEDLAPKSATFAVQSSTQSPTTLSSSASVNSCAVNPCLHNGECVADNTSRGYHCRCPPSWQGDDCSVDVNECLSNPCPSTAMCNNTQGSFICKCPVGYQLEKGICNLVRTFVTEFKLKRTFLNTTVEKHSDLQEVENEITKTLNMCFSALPSYIRSTVHASRESNAVVISLQTTFSLASNVTLFDLADRMQKCVNSCKSSAEVCQLLGSQRRIFRAGSLCKRKSPECDKDTSICTDLDGVALCQCKSGYFQFNKMDHSCRACEDGYRLENETCMSCPFGLGGLNCGNPYQLITVVIAAAGGGLLLILGIALIVTCCRKNKNDISKLIFKSGDFQMSPYAEYPKNPRSQEWGREAIEMHENGSTKNLLQMTDVYYSPTSVRNPELERNGLYPAYTGLPGSRHSCIFPGQYNPSFISDESRRRDYF

Test system: SKM9-2 antibody
Test: Western blot reactivity of human HEG1 fragments expressed in ACC-MESO-1 with SKM9-2 antibody
Type: binding, mouse
Conditions: Western blot of cell lysate
Experimental: In this Example, the mesothelioma cell line ACC-MESO-1 was allowed to express a human HEG1 fragment with the endogenous HEG1 of ACC-MESO-1 knocked down, and the reactivity with the SKM9-2 antibody was examined. Subsequently, the reactivity with the antibody was tested for the epitope region through alanine scanning, and key amino acids for binding to the antibody were determined.
Gene transfer was performed with HEG1 siRNA (H9106) (SEQ ID NOs: 40, 41) and human HEG1 for the mesothelioma cell line ACC-MESO-1, and the reactivity of the SKM9-2 was examined through Western blot analysis. A full length protein (HEG1 full length) or a fragment (HEG1 3 kb, HEG1 2 kb, or HEG1 1 kb) of the human HEG1 was used. The full length human HEG1 protein, a protein having the amino acid sequence set forth in SEQ ID NO: 35, was obtained through inserting a base sequence set forth in SEQ ID NO: 34 into pFLAG-CMV1 (Sigma-Aldrich Japan K.K.) to obtain a plasmid, transforming the plasmid, and allowing the mesothelioma cell line to express the plasmid. Fragment HEG1 3 kb was obtained through inserting a fragment corresponding to a sequence from position 285, leucine, to position 1387, phenylalanine, of SEQ ID NO: 35 into pFLAG-CMV1 (Sigma-Aldrich Japan K.K.) in an in-frame manner, and allowing the mesothelioma cell line to express the resultant. HEG1 2 kb and HEG1 1 kb were obtained through allowing the mesothelioma cell line to express products similarly obtained from a fragment corresponding to a sequence from position 677, leucine, to position 1387, phenylalanine, of SEQ ID NO: 35 and a fragment corresponding to a sequence from position 992, valine, to position 1387, phenylalanine, of SEQ ID NO: 35, respectively. Each cell lysate was analyzed through Western blot with the SKM9-2 antibody.
Further, the region in exon 7 of HEG1 was analyzed in detail. The amino acid sequence of a part of exon 7 of HEG1 was connected to the N-terminal side of a protein obtained by connecting a GPI anchor signal to human SLURP1 (SEQ ID NO: 42; hereinafter referred to as “SLURPgpi”) to produce a fusion protein, and the reactivity of the SKM9-2 was examined through Western blot analysis with the fusion protein. A signal sequence (SEQ ID NO: 43) was added to the N-terminal of the fusion protein before expression.
Used fusion proteins of a partial sequence of exon 7 of HEG1 and SLURPgpi were as follows: • a fragment obtained by bonding a fragment from amino acid No. 783, aspartic acid, to amino acid No. 991, serine, to SLURPgpi (7.6); • a fragment obtained by bonding a fragment from amino acid No. 832, glutamine, to amino acid No. 991, serine, to SLURPgpi (7.7); • a fragment obtained by bonding a fragment from amino acid No. 886, glutamine, to amino acid No. 991, serine, to SLURPgpi (7.8); • a fragment obtained by bonding a fragment from amino acid No. 941, alanine, to amino acid No. 991, serine, to SLURPgpi (7.9); • a fragment obtained by bonding SEQ ID NO: 44 to SLURPgpi (7.61); • a fragment obtained by bonding SEQ ID NO: 45 to SLURPgpi (7.62); • a fragment obtained by bonding SEQ ID NO: 46 to SLURPgpi (7.63); • a fragment obtained by bonding SEQ ID NO: 47 to SLURPgpi (7.64); • a fragment obtained by bonding SEQ ID NO: 48 to SLURPgpi (7.623); • a fragment obtained by bonding SEQ ID NO: 49 to SLURPgpi (7.6231); • a fragment obtained by bonding SEQ ID NO: 50 to SLURPgpi (7.6232); • a fragment obtained by bonding SEQ ID NO: 51 to SLURPgpi (7.6241); and • a fragment obtained by bonding SEQ ID NO: 52 to SLURPgpi (7.6242).

Row | Molecule | Binding to SKM9-2 antibody (positive/negative) | Binding to SKM9-2 antibody (positive/negative) (listed as fragment 7.62) | Binding to SKM9-2 antibody (positive/negative) (listed as fragment 7.6) | Binding to SKM9-2 antibody (positive/negative) (listed as fragment 7.623)
1 | B1 | negative |  |  | 
2 | B2 | positive | positive signal |  | 
3 | B3 | positive |  |  | 
4 | B4 | positive |  | positive signal | 
5 | B5 | positive |  |  | positive signal
6 | B6 | positive |  |  | 
